The target in one test is T1, NKp30/mFc2.
T1 construct: also called soluble NKp30 fusion protein; NKp30/mFc2-biotin
T1 chain: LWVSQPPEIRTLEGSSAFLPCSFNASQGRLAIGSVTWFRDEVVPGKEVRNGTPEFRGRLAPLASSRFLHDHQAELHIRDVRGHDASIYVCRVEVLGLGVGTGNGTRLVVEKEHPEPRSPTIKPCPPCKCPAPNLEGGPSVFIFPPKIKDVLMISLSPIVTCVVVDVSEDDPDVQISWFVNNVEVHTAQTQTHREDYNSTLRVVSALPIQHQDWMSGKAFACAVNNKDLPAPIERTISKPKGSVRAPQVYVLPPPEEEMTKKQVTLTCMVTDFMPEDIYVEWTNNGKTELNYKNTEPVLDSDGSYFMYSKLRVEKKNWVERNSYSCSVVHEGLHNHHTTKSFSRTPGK
The test can be described thus: competition FACS: soluble zB7H6/VASP at 100-fold mass excess competed NKp30/mFc2-biotin binding to K562, 293F and P815 zB7H6 cells. On the procedure: Cells were resuspended in PBS/2% FBS at a concentration of 1.5×10⁶ cells/ml (150,000 cells/sample). 100 μl samples were aliquoted with 100 μg/ml of whole human IgG (Jackson #009-000-003) included for Fc receptor blocking. NKp30/mFc2-biotin probe was added at a concentration of 2 μg/ml and 100-fold mass excess of a VASP protein (NKp30/VASP or human zB7H6/VASP) or a control VASP protein (B7H3/VASP). Cells were incubated for 1 hour on ice and washed with 2 ml cold PBS. Washed cells were resuspended in 100 μl of PBS/2% FBS with streptavidin-PE (BD:554061) at 1 μg/ml and incubated for 15 minutes on ice. Cells were then washed with 1 ml cold PBS, resuspended in 250 μl of PBS, and analyzed for PE staining on a FACSCalibur.

The target in test [1] is T2, human zB7H6 (full-length, on cells) (human, UniProt Q68D85 25-454).
T2 construct: also called hzB7H6; hypothetical protein DKFZP686I21167
T2 sequence: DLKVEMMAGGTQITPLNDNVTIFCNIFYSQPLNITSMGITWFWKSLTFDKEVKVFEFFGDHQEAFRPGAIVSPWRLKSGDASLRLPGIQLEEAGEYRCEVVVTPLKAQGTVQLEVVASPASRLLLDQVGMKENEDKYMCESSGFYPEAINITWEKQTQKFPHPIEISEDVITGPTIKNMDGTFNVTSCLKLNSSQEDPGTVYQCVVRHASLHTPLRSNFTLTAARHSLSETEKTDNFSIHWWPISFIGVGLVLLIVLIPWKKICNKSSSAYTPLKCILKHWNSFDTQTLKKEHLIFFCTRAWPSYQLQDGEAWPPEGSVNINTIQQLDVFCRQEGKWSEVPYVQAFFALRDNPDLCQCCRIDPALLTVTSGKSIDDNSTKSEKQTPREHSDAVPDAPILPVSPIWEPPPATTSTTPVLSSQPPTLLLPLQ
Nature of the test: competition FACS on K562 cells against NKp30/mFc2, 100-fold mass excess. How it is done: K562 cells were probed by FACS with a soluble form of NKp30 (NKp30/mFc2 (SEQ ID NO:8), containing the extracellular domain of NKp30 and a murine Fc fragment). K562 cells were resuspended in PBS/2% FBS at a concentration of 1.6×10⁶ cells/ml (160,000 cells/sample). 100 μl samples were aliquoted and 1 μl of whole human IgG (Jackson #009-000-003) added to each. NKp30/mFc2 probe was added at a concentration of 2 μg/ml together with 10 μg/ml Heparin and 100-fold mass excess of a VASP protein (NKp30/VASP or a control VASP protein, human zB7R1/VASP (SEQ ID NO:12) or B7-DC/VASP (SEQ ID NO:13)). Cells were incubated for 1 hour on ice and washed with 2 ml cold PBS. Washed cells were resuspended in 100 μl of PBS/2% FBS with 1 μl PE anti-mIgG (Jackson 115-116-071) and incubated for 30 minutes on ice. Cells were then washed twice with 2 ml cold PBS, resuspended in 500 μl of PBS, and analyzed for PE staining on a FACSCalibur.

B1: hzB7H6/VASP-His6 (ligand)
chain: DLKVEMMAGGTQITPLNDNVTIFCNIFYSQPLNITSMGITWFWKSLTFDKEVKVFEFFGDHQEAFRPGAIVSPWRLKSGDASLRLPGIQLEEAGEYRCEVVVTPLKAQGTVQLEVVASPASRLLLDQVGMKENEDKYMCESSGFYPEAINITWEKQTQKFPHPIEISEDVITGPTIKNMDGTFNVTSCLKLNSSQEDPGTVYQCVVRHASLHTPLRSNFTLTAARHSLSETEKTDNFSIHWWPEPRSGSGGSGGSDLQRVKQELLEEVKKELQKVKEEIIEAFVQELRGSGGHHHHHH
notes: also called human zB7H6/VASP; zB7H6 C(VASP)H6
As for B1, the binding result with NKp30/mFc2 is “binds”.

B2: NKp30/VASP (receptor)
chain: LWVSQPPEIRTLEGSSAFLPCSFNASQGRLAIGSVTWFRDEVVPGKEVRNGTPEFRGRLAPLASSRFLHDHQAELHIRDVRGHDASIYVCRVEVLGLGVGTGNGTRLVVEKEHPEPRSGSGGSGGSDLQRVKQELLEEVKKELQKVKEEIIEAFVQELRGSGGHHHHHH
notes: no limits or signal peptide residues stated; also called soluble NKp30/VASP A1683F; NKp30/VASP-A647
Turning to B2, in test [1], the binding result was “binds”.

For the origin of these results see patent publication US20180258172A1 (ZymoGenetics, published 2018).
